The DeepSol protein solubility set

Test: soluble on expression in E. coli; label from the status in PepcDB or PDB records

Soluble on expression in E. coli, not soluble:
GHHDKRFKAFIAHDGIFNMEMQYLETEEKWFANWDMGGAYWEKQNPTAQRTFANSPHLFVEKWDTPILCIHGEKDYRILANQAMAAFDAAVMRGVPAELLIYPDENHWVLKPQNGVLWQRTFFEWLDQWLKPN, PFSFFHWIFIHPESHTESEISEIITHEETHARQYHSADVLVSEIMCTFCWFNPFVWLMKREVRGNLEYMADHRVLETGHDSKSYQYHLL, MGSDKIHHHHHHMSQTLEQVIQNAGDLVNFVRNQQVGPNVYPGVPAEYSNWRNEQWAWAHSAVLYNQSYHMVDLAVKGPDAFKMLEHLGINSFKNFQPDRAKQFVPVTPDGYVIGDVILFYLDENHFNLVGRAPTIEWVEYHAASGNWNVTVERDERWAMRTDGKRNSYRFQIQGPNAMKIIEKATGKTAPDLKFFHMTRMTIGGKEVRALRHGMAGQPGFELMGPWEDYGAVHAALVEAGKGFQMALVGGRAYSSNTLESGWIPSPFPAIYTGEALRPYREWLSANSYEAKCSVGGSYVPETIEGYYTTPWDLGYGPFVKFDHDFIGRAALEKMAAEGKHRTKVTLALDNEDVMRVQSSALSKGDRAKFMEYPSAVYSMHPFDQVLADGKMVGLSTWIGYTANEGKFLTLAMMEPGYVEPGTQVSLLWGEPNGGTTKPTVEPHVQTEIKATVAAVPYSEVARDSYAEGWRTKK, MAHHHHHHMAEHLLEQLRDVMVLQPSDGAVGNGEMDTSAANSHKYSVVSTFTNSPFVAVLEDTENNEDDEKELIRLLDELSHRIHCSDAADDVERPSGSFAVEKVEAPTLRASHMAPPIYGSPAPAGGSPFNYASCVSQTTKPPPSFAEAVATTPPLSEVPVELSPLAAHYVPPMPAVQQDPILLRNTHGVFMLRPITKPTPPYTPPSLTSSISQPPRYALPPAALPQSQPHFLGSSLAQVGGLADAQIPKKSSFSPYEIPHSMNNVIGGSQILGTGGAGNYTYISTSVKSKSTSHMQPPPPYPS, MGSDKIHHHHHHMWQFPLFETILIEQGQAKNISYHQQRYEKSLLKFYPKMKLQPFDLAKIIAKHTALFTHREGLIRCRIDYNHHDYVLQCFPYQQKVYRTFKPVFCDHIDYSLKFSDRTLLNNLLKQKEECDEIMIIRQGKVTDCSIGNLIFRQNNQWITPDKPLLEGTQRAKLLEQKKIIAREIFFEDLAQYEEIRLINAMNGL

Soluble on expression in E. coli, soluble:
MMIDDSKVSFVIPTINEEGTIGSVIDGIRSEFPNSEIIVVDTNSTDRTREIARSKGARVIEEPRRGYGRAYQTGIPAASGEIIVCMDGDGTYPTDVVKPLIELLIADRVDFISCDRITFRTSKNYTTLHYVGNMVLNLTIRILFKVRMVDSQSGMWVFRSEIYRKMKNLGNGMSFSQNIKIEAVRHGVFMEIPIRYGVRITKPKLKTWHDGFHNLFALFVKRVSELEHHHHHH, DSRGCARWCPQDSSCVNATACRCNPGFSSFSEIITTPMETCDDINECATLSKVSCGKFSDCWNTEGSYDCVCSPGYEPVSGAKTFKNESENTCQDVDECSSGQHQCDSSTVCFNTVGSYSCRCRPGWKPRHGIPNNQKDTVCE, GMNNRELYGNIRDVYHLLQKNLDKAIEQYDISYVQFGVIQVLAKSGKVSMSKLIENMGCVPSNMTTMIQRMKRDGYVMTEKNPNDQRETLVYLTKKGEETKKQVDVQYSDFLKENCGCFTKEEEGILEDLLLKWKKHLN, MSELPPLNTDTIWGILNDQIDDATVMQLVWYYLGYRYDATTEKWDNNAVPSEWRDEYPEPPNFLESRPATMKLTRSIPKQYKQITKEKLGFKGYKIGTFTPRETRRATSANWLLSYLQQQIDQGK, MGHHHHHHSHGTRVTLRFQMKMFESADSTATRSGQDLWAEICSCLPNPEQEDGANNAFSDSFVDSCPEGEGQREVADFAVQPAVKPWAPLQDSEVYLASLEKKLRRIKGLNQEVTSKDMLRTLAQAKKECWDRFLQEKLASEFFVDGLDSDESTLEHFKRWLQPDKVAVSTEEVQYLIPPESQVEKPVAEDEPAAGDKPAAAEQ
